Changes are numbered by the printed parent chain. Numbers in names are those of the source. Like-named read-outs stand apart in the source and are kept apart here.
B1: FliF in the native flagellar basal body (native MS ring) (natural protein)
chain: MSATASTATQPKPLEWLNRLRANPRIPLIVAGSAAVAIVVAMVLWAKTPDYRTLFSNLSDQDGGAIVAQLTQMNIPYRFANGSGAIEVPADKVHELRLRLAQQGLPKGGAVGFELLDQEKFGISQFSEQVNYQRALEGELARTIETLGPVKSARVHLAMPKPSLFVREQKSPSASVTVTLEPGRALDEGQISAVVHLVSSAVAGLPPGNVTLVDQSGHLLTQSNTSGRDLNDAQLKFANDVESRIQRRIEAILSPIVGNGNVHAQVTAQLDFANKEQTEEHYSPNGDASKATLRSRQLNISEQVGAGYPGGVPGALSNQPAPPNEAPIATPPTNQQNAQNTPQTSTSTNSNSAGPRSTQRNETSNYEVDRTIRHTKMNVGDIERLSVAVVVNYKTLADGKPLPLTADQMKQIEDLTREAMGFSDKRGDTLNVVNSPFSAVDNTGGELPFWQQQSFIDQLLAAGRWLLVLVVAWILWRKAVRPQLTRRVEEAKAAQEQAQVRQETEEAVEVRLSKDEQLQQRRANQRLGAEVMSQRIREMSDNDPRVVALVIRQWMSNDHE
B2: FliF(L253A), overexpressed in E. coli (natural protein)
chain: B1 chain with L253A
B3: FliF(I252R), overexpressed in E. coli (natural protein)
chain: B1 chain with I252R
B4: FliF(L253A) expressed from pMMiF004 in Salmonella TH12415 (ΔfliF) (natural protein)
chain: B1 chain with L253A
B5: FliF(I252A) expressed from pMMiF002 in Salmonella TH12415 (ΔfliF) (natural protein)
chain: B1 chain with I252A
B6: full-length Salmonella FliF (MS ring), overexpressed from pKOT112 (data set 1) (natural protein)
chain: B1 chain
B7: full-length Salmonella FliF (MS ring), overexpressed from pKOT105 (data set 2) (natural protein)
chain: B1 chain
B8: FliF(V266A), overexpressed in E. coli (natural protein)
chain: B1 chain with V266A
B9: FliF(L253R), overexpressed in E. coli (natural protein)
chain: B1 chain with L253R
B10: FliF(I252A), overexpressed in E. coli (natural protein)
chain: B1 chain with I252A
B11: FliF(V266R), overexpressed in E. coli (natural protein)
chain: B1 chain with V266R

Key:
cryo-EM structure [1] = target: the molecule itself; test: cryo-EM structure
negative-stain EM = target: the molecule itself; test: negative-stain EM
[2] = target: the molecule itself; test: electron microscopy of purified hook-basal bodies
cryo-EM structure [3] = target: the molecule itself; test: cryo-EM structure; remark: listed apart in the source

Row | Protein | binding result (negative-stain EM) | other results
1 | B1 | – | stoichiometry N (cryo-EM structure [1]): 34
2 | B2 | binds | –
3 | B3 | binds | –
4 | B4 | – | binding result [2]: binds
5 | B5 | – | binding result [2]: binds
6 | B6 | – | stoichiometry N (cryo-EM structure [3]): 34
7 | B7 | – | stoichiometry N (cryo-EM structure [3]): 34
8 | B8 | binds | –
9 | B9 | binds | –
10 | B10 | binds | –
11 | B11 | binds | –
